{"source": "patent US20130309246A1", "biological_target": "Notch (Notch pathway receptors) in MC3T3-E1 murine osteoblasts (mouse)", "assay": "cell-based or functional assay", "data": [{"substance": "human JAGGED1 overexpressed in SCP28 breast cancer cells (JAG1 OE tumor cells) (from UniProt P78504 34-1218) (ligand)", "values": [{"measurement": "Notch activity (firefly luciferase Notch reporter in MC3T3-E1 osteoblasts cocultured with JAG1 OE tumor cells)", "value": 6, "unit": "fold"}]}]}
